According to patent US20040086988:

Columns and labels:
[1] = tested on: L-isomer of the substrate Ac-Thr-Ile-Nle-Nle-Gln-Arg.amide
[2] = tested on: D-fluorogenic substrate 2-aminobenzoyl-Thr-Ile-Nle-Phe(p-NO2)-Gln-Arg.amide
[3] = tested on: D-isomer of the substrate Ac-Thr-Ile-Nle-Nle-Gln-Arg.amide
[4] = tested on: L-fluorogenic substrate 2-aminobenzoyl-Thr-Ile-Nle-Phe(p-NO2)-Gln-Arg.amide

Substance | cleavage of hexapeptide substrate (RP HPLC, products identified by ion spray MS) [1] | cleavage of the chiral fluorogenic substrate (fluorogenic assay, corresponding chiral substrate) [2] | cleavage of hexapeptide substrate (RP HPLC, products identified by ion spray MS) [3] | cleavage of fluorogenic substrate (increase in fluorescence) [4] | cleavage of fluorogenic substrate (increase in fluorescence) [2] | cleavage of the chiral fluorogenic substrate (fluorogenic assay, corresponding chiral substrate) [4]
D-[Aba^67.95(CO-S)^51-52]2 HIV-1 PR | is inactive on the L-substrate | the cleavage of chiral fluorogenic substrates by the D- and L-HIV-1 PR analogues | The D-enzyme cleaves only the D-substrate | – | – | –
D-[Aba^67.95.167.195]HIV-1 protease (HIV-1 PR) | – | – | – | the D-enzyme cleaved only the corresponding D-substrate (L-substrate not cleaved) | the D-enzyme cleaved only the corresponding D-substrate | –
L-[Aba^67.95(CO-S)^51-52]2 HIV-1 PR | the L-enzyme shows full activity towards the L-substrate | – | is inactive towards the D-substrate | – | – | the cleavage of chiral fluorogenic substrates by the D- and L-HIV-1 PR analogues
L-[Aba^67.95.167.195]HIV-1 protease (HIV-1 PR) | – | – | – | the L-enzyme cleaved only the L-substrate | the L-enzyme cleaved only the L-substrate (D-substrate not cleaved) | –
